From the nanobody polyreactivity screen of Harvey et al. (2022)

Experiment: yeast display, Sf9 membrane polyspecificity reagent, FACS + sequencing; frameworks hold sequencing errors
Summary of the method: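 Nanobodies came from a synthetic yeast display library in Saccharomyces cerevisiae BJ5465, induced with galactose for 36–48 hours and stained for 1 hour at 4 °C with 10% biotinylated, detergent-solubilized Sf9 membrane reagent. Cells were enriched on streptavidin microbeads and then FACS-sorted, with low and high (top ~1%) gates set on anti-HA fluorescence for expression and streptavidin fluorescence for reagent binding. Each polyreactivity label reflects the gate a clone came from. Genes were amplified by colony PCR, sequenced by MiSeq 2 × 250 and filtered by CDR length.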
In the case of “QVQLVESGGGLVQAGGSLRLSCAASGSTFITYAMGRYRQAPGKERELVAAIRWSGGGTYYADSVKGRFTISRDNAKNTVYLQMNSLKPEDTAVYYCAADHFNYTTGRDYWGQGTQVTVSS”, the “polyreactivity (PSR sort gate)” value is reported as “low polyreactivity”.
In the case of “QVQLVESGGGLVQAGGSLRLSCAASGSTFITYAMGWYRQAPGKERELVAAIRVIGGRTYYADSVKGRFTISRDNAKNTVYLQMNSLKPEDTAVYYCAVTGRGWGYDYWGQGTQVTVSS”, the “polyreactivity (PSR sort gate)” value is reported as “high polyreactivity”.
In the case of “QVQLVESGGGLVQAGGSLRLSCAASGSTFITYGMGWYRQAPGKERELVARITLSGGSTYYADSVKGRFTISRDNAKNTVYLQINSLKPEDTAVYYCATDFGWQYYVLDGYYWGQGTQVTVSS”, the “polyreactivity (PSR sort gate)” value is reported as “low polyreactivity”.
With “QVQLVESGGGLVQAGGSLRLSCAASGSTFIVNAMGWYRQAPGKERELVAAITEDGDTTYYADSVKGRFTISRDHAKKTVYLQMNSLKPEDTAVYYCAARTYRGLADDYWGQGTQVTVSS” the “polyreactivity (PSR sort gate)” value was “high polyreactivity”.
In the case of “QVQLVESGGGLVQAGGSLRLSCAASGSTFIYNAMGWYRQAPGKERELVAAITDGSTKYADSVKGRFTISRDNAKNTVYLQMNSLKPEDTAVYYCNAYVWRWRYDSWGQGTQVTVSS”, the “polyreactivity (PSR sort gate)” value is reported as “low polyreactivity”.
With “QVQLVESGGGLVQAGGSLRLSCAASGSTFKANAMGWYRQAPGKERELVASIRFSAGSTYYADSVKGRFTISRDNAKNTVYLQMNSLKPEDTAVYYCAAGRHVLKRRYDYWGQGTQVTVSS” the “polyreactivity (PSR sort gate)” value was “low polyreactivity”.
With “QVQLVESGGGLVQAGGSLRLSCAASGSTFKFNAMGWYRQAPGKERELVAAISRGGRTNYADSVKGRFTISRDNAKNTVYLQMNSLKPEDTAFYYCAADYSTLYKDDYWGQGTQVTVSS” the “polyreactivity (PSR sort gate)” value was “low polyreactivity”.
For “QVQLVESGGGLVQAGGSLRLSCAASGSTFKGNAMGWYRQAPGKERELVAAINRSGTSTYYADSVKGRFTISRDNAKNTVYLQMNSLKPEDTAVYYCAKKYFGHRFDYWGQGTQVTVSS”, the “polyreactivity (PSR sort gate)” value was “high polyreactivity”.
For “QVQLVESGGGLVQAGGSLRLSCAASGSTFKIYAMGWYRPAPGKERELVAAITRGASTYADSVKGRFTISRDNAKNTVYLQMNSLKPEDTAVYYCAAYRRPSRSGDKPIGFDYWGQGTQVTVSS”, the “polyreactivity (PSR sort gate)” value was “high polyreactivity”.
For “QVQLVESGGGLVQAGGSLRLSCAASGSTFKIYAMGWYRQAPGKERELVARITSGGSTNYADSVKGRFTISRDNAKNTVYLQMNSLKPEDTAVYYCAVPWYTRESGAYDYWGQGTQVTVSS”, the “polyreactivity (PSR sort gate)” value was “high polyreactivity”.
For “QVQLVESGGGLVQAGGSLRLSCAASGSTFKKYAMGWYRQAPGKERELVAAITWTGGSTYYADSVKGRFTISRDNAKNTVYFQMNSLKPEDTAVYYCAAYKTYAVKYYWGQGTQVTVSS”, the “polyreactivity (PSR sort gate)” value was “high polyreactivity”.
For “QVQLVESGGGLVQAGGSLRLSCAASGSTFKNNAMGWYRQAPGKEREFVASISKRGGSTYYADSEKGRFTISRDNAKNTVYLQMNSLKPEDTAVYYCAAEELRYGLYEYDYWGLGTQVTVSS”, the “polyreactivity (PSR sort gate)” value was “high polyreactivity”.
In the case of “QVQLVESGGGLVQAGGSLRLSCAASGSTFKNYVMGWYRQAPGKERELVAAISRSGGRTYYADSVKGRFTISRDNAKNTVYLQMYSLKPEVTAVYYCATPDQVELSSYDYWGEGTQVTVSS”, the “polyreactivity (PSR sort gate)” value is reported as “high polyreactivity”.
With “QVQLVESGGGLVQAGGSLRLSCAASGSTFKPNAMGWYRQAPGKERELVAAITSGSTYYADSVKGRFTISRDNAKNSVYLQMNSLIPEDSAVYYCATSFRGKSPYRNSGSYYFWGQGTQVTVSS” the “polyreactivity (PSR sort gate)” value was “high polyreactivity”.
With “QVQLVESGGGLVQAGGSLRLSCAASGSTFKQYAKGWYRQAPGKERELVAAISSVGRTYYADSVKGRFTISRDNAKNTVYLQINSLKPEDTAVYYCNRRWYTHWGQGTQVTVSS” the “polyreactivity (PSR sort gate)” value was “high polyreactivity”.
For “QVQLVESGGGLVQAGGSLRLSCAASGSTFKRNAMGWYRQAPGKDRELVAAISFRGGSTYYADSVKGRFTISRDNAKNTVYLQMNSLKPEDTAVYYCAAGIYRIRGGGISFDYWGQGTQVTVSS”, the “polyreactivity (PSR sort gate)” value was “high polyreactivity”.
For “QVQLVESGGGLVQAGGSLRLSCAASGSTFKRNAMGWYRQAPGKERELVASISKRGGSTYYADSVKGRFTISRDNAKNTVYLQMNSLKPEDTAVYYCAKTWQNGDRNTIGSVYAYYSWGQGTQVTVSS”, the “polyreactivity (PSR sort gate)” value was “high polyreactivity”.
For “QVQLVESGGGLVQAGGSLRLSCAASGSTFKRNAMGWYRQAPVKERELVATITRRGGSTYADSVKGRFTISRDNAKNTVYLQMNSLKAEDTAVYYCARDGFSGGMDYWGQGTQVTVSS”, the “polyreactivity (PSR sort gate)” value was “low polyreactivity”.
In the case of “QVQLVESGGGLVQAGGSLRLSCAASGSTFKRYAMGWSRQAPGKERECVAGITWRGGRTYYADSVKGRFKISRDIAKNTVYLQMNSLKPEDTSVYYCAATFYTSSHLAGYYWGQGTQVTVSS”, the “polyreactivity (PSR sort gate)” value is reported as “high polyreactivity”.
For “QVQLVESGGGLVQAGGSLRLSCAASGSTFKRYAMGWYRQAPGKDRELVASISSGGSPNYADSVKGRFTISRDNAKNTVYLQMNSLKPEDTAVYYCAVSYRSFRYFWERYSSWGQGTQVTVSS”, the “polyreactivity (PSR sort gate)” value was “high polyreactivity”.
For “QVQLVESGGGLVQAGGSLRLSCAASGSTFKRYAMGWYRQAPGKERELVAAITNGDRTNYADSVKGRFTISRDNAKNTVYLHMNSLKPEDTALYYCAAAYSRYTSRFYYWGQGTQVTVSS”, the “polyreactivity (PSR sort gate)” value was “high polyreactivity”.
For “QVQLVESGGGLVQAGGSLRLSCAASGSTFKRYAMGWYRQAPGKERELVAAITNGDRTNYADSVKGRFTISRDNAKNTVYLQMNSLKPEDTAVYYCAAAYSRYTSRFYYWGQGTQVTVSS”, the “polyreactivity (PSR sort gate)” value was “high polyreactivity”.
With “QVQLVESGGGLVQAGGSLRLSCAASGSTFKRYAMGWYRQAPGKERELVASISRSGGSTYYADSVKGRFTISRDNAKNTVYLQMNSLKPEDTAVYYCNARNRVYYTLSGYGYWGQGTQVTVSS” the “polyreactivity (PSR sort gate)” value was “high polyreactivity”.
For “QVQLVESGGGLVQAGGSLRLSCAASGSTFKRYAMGWYRQAPGKERELVASISSGGSTNYADSVKGRFTISRDNAKNTVYLQMNSLKREDTAVYYCAVSYRSFRYYWERYYSWGQGTQVTLSS”, the “polyreactivity (PSR sort gate)” value was “high polyreactivity”.
In the case of “QVQLVESGGGLVQAGGSLRLSCAASGSTFKRYDLGWYRQAPGKERELFAAIRTSGGTTYYADSVKCRFTISRDYAKNNVYLQMNSLKPEDTAVYYCAASKWPRHRTRRYYYWVQGTQVTVSS”, the “polyreactivity (PSR sort gate)” value is reported as “high polyreactivity”.
For “QVQLVESGGGLVQAGGSLRLSCAASGSTFKRYTMGWYRQAPGKESELVAAISSSGGSTYYADSVKGRFTISRDNAKNTVYLQMNSQKPEDTAVYYCAKGYQRGRDYWGQGTQVTVSS”, the “polyreactivity (PSR sort gate)” value was “high polyreactivity”.
For “QVQLVESGGGLVQAGGSLRLSCAASGSTFKSYAMGWYRPAPGKERELVAAISSSGGSTYYADSVKGRFTISRDNAKNTVYLQMNSLKPEDTAVYYCNAVWVQGGIGNYWGQGTQVTVSS”, the “polyreactivity (PSR sort gate)” value was “low polyreactivity”.
In the case of “QVQLVESGGGLVQAGGSLRLSCAASGSTFKTYAMGWYRQAPGKERELVAAITSSGGRTYYADSVKGRFTISRDNAKNTVYLQMNSLKPEDTAVYYCAAGRRSYNQLDYWGQGTQVTVSS”, the “polyreactivity (PSR sort gate)” value is reported as “high polyreactivity”.
In the case of “QVQLVESGGGLVQAGGSLRLSCAASGSTFKTYTMGWYRQAPGKEREFVAGITSGGSTSYADSVKGRFTISRDNAKNTVYLQMNSLKQEDTAVYYCAAPDGDTSFSDQAYDYWGQGTQVTVSS”, the “polyreactivity (PSR sort gate)” value is reported as “low polyreactivity”.
In the case of “QVQLVESGGGLVQAGGSLRLSCAASGSTFKTYVMGWYRQAPGKERELVAGISDSGGTTYYADSVKGRFTISRDNAKNTVYLQMNSLKPEDTAVYFCNAAFGVYVATGDSFPWHKKFGYWGQGTQVTVSS”, the “polyreactivity (PSR sort gate)” value is reported as “high polyreactivity”.
In the case of “QVQLVESGGGLVQAGGSLRLSCAASGSTFKVYAMGWYRQAPGKERELVAAISTGGGSTYYADSVKGRFTISRDNAKNTVSLQMNSLKPEDTAVYYCAAVDRYPYAGYYWGQGTQVTVSS”, the “polyreactivity (PSR sort gate)” value is reported as “high polyreactivity”.
In the case of “QVQLVESGGGLVQAGGSLRLSCAASGSTFKYNAMGWYRQAPGKEREFVAAISYSGGSTYYADSVKGRFTISRDYAKNTVYLQMNSLKPEDTAVYYCAAYPWERYTWRYVYRGHDYWGQGTQVTVSS”, the “polyreactivity (PSR sort gate)” value is reported as “low polyreactivity”.
With “QVQLVESGGGLVQAGGSLRLSCAASGSTFKYNAMGWYRQAPGKERELVASISRSGGSTYYADSVKGRFTISRDNAKNTVYLQMNSLKPEDTAVYYCAVRVSSHPVYHYNYWGQGTQVTVSS” the “polyreactivity (PSR sort gate)” value was “high polyreactivity”.
In the case of “QVQLVESGGGLVQAGGSLRLSCAASGSTFKYNTMGWYRQAPGKERELVARISWSGTRTYYADSVKGRFTISRDNAKNTVYLQMNSLKPEDTAVYYCAKVSYFWSPYGYDSWGQGTQVTVSS”, the “polyreactivity (PSR sort gate)” value is reported as “high polyreactivity”.
With “QVQLVESGGGLVQAGGSLRLSCAASGSTFKYYALGWYRQAPGKERELVAVITSGGSTYYADSVKGRFTISRDNAKNTVYFQMNSLKPEDTAVYYCAAGVRAYNWGEYDYWGQGTQVTVSS” the “polyreactivity (PSR sort gate)” value was “low polyreactivity”.
In the case of “QVQLVESGGGLVQAGGSLRLSCAASGSTFKYYAMGWYRQAPGKERELVAAISGTGGNTYYADSVKGRFTISRDNAKNTVYLQMNSLKPEDTAVYYCAAGFRRGWAYTTYDYWGQGTQVTVSS”, the “polyreactivity (PSR sort gate)” value is reported as “low polyreactivity”.
With “QVQLVESGGGLVQAGGSLRLSCAASGSTFKYYTMGWYRQAPGKERELVAAISYSGGSTYYADSVKGRFTISRDNAKNTVYLQMNSLKPEDTAVYYCAALRYADYDYWGQGTQVTVSS” the “polyreactivity (PSR sort gate)” value was “high polyreactivity”.
In the case of “QVQLVESGGGLVQAGGSLRLSCAASGSTFLGYAMGWSRQAPGKERELVAAISWSGGSTYYADSVKGRFTISRDNAKNTVYLQMNRLKPEDTAVYYCNAVGYLDFEWGQGTQVTVSS”, the “polyreactivity (PSR sort gate)” value is reported as “low polyreactivity”.
In the case of “QVQLVESGGGLVQAGGSLRLSCAASGSTFLGYAMGWYRQAPGKERELVAAITYRGTRTYYADSVKGRFTISRDYAKNTVYLQMNSLKPEDTTVYYCAADRYIGTVEYDYWGQGTQVTVSS”, the “polyreactivity (PSR sort gate)” value is reported as “high polyreactivity”.
With “QVQLVESGGGLVQAGGSLRLSCAASGSTFLNNAMGWSRQAPGEERELVAAISRRGGNTYYADSEKGRFTISRDNAKNTVSLHMNSLKPEDTAVYYCAADLVWTRYFGYAQDYYIEFDYWGQGTQVTVSS” the “polyreactivity (PSR sort gate)” value was “high polyreactivity”.
For “QVQLVESGGGLVQAGGSLRLSCAASGSTFLNNAMGWYRQAPGKERELVATITSGGITNYADSVKGRFTISRDNAKNTVYLQMNSLKPEDTAVYYCNADTWGFTYYYWGQGTQVTVSS”, the “polyreactivity (PSR sort gate)” value was “low polyreactivity”.
For “QVQLVESGGGLVQAGGSLRLSCAASGSTFLNYAMGWSRQAPGKERELVAAISGSTTRTYYADSVKGRFTISRDNAKNPVYLQMNSLKPEDTAVYYCAARVRYPPYRSSDGQRAGYWGQGTQVTVSS”, the “polyreactivity (PSR sort gate)” value was “high polyreactivity”.
With “QVQLVESGGGLVQAGGSLRLSCAASGSTFLRFAMGWYRQAPGKERELVARISGGGTTYYADSVKGRFTISRDNAKNTVYLQMNSLKPEDTAVYYCNAFYFYVNQGRYEYGYWGQGTQVTVSS” the “polyreactivity (PSR sort gate)” value was “high polyreactivity”.
